Results on 2 molecules are retold here after PMC11630639, “Real-time single-molecule imaging of CaMKII-calmodulin interactions” (Biophysical Journal, 2024).

In data set [1] the target is wheat germ rhodamine-calmodulin (r-CAM) (UniProt P04464). Briefly: single-molecule two-colour TIRFM, immobilised holoenzyme. The settings on record: reference: T287A holoenzyme (T306, T307 intact); sites T306,T307.
Data set [2] concerns the molecule itself. The data set is described as follows: single-molecule stepwise photobleaching of Venus (TIRF microscopy); V-CaMKII held on a coverslip by GFP antibody; photobleaching steps in the Venus channel counted with a step-finder algorithm to give subunit stoichiometry (S_CaMKII).

With “CaMKIIβ (Venus-CaMKIIβ) (from UniProt P28652) T287A/T306A/T307A holoenzyme”, the “other: τ+/τ− ratio” value in data set [1] is reported as “stronger; reference 1.76”.

B1: Venus-CaMKIIβ T287.306-307A holoenzyme (enzyme, mouse, UniProt P28652 1-542, looked up)
chain: MATTVTCTRFTDEYQLYEDIGKGAFSVVRRCVKLCTGHEYAAKIINTKKLSARDHQKLEREARICRLLKHSNIVRLHDSISEEGFHYLVFDLVTGGELFEDIVAREYYSEADASHCIQQILEAVLHCHQMGVVHRDLKPENLLLASKCKGAAVKLADFGLAIEVQGDQQAWFGFAGTPGYLSPEVLRKEAYGKPVDIWACGVILYILLVGYPPFWDEDQHKLYQQIKAGAYDFPSPEWDTVTPEAKNLINQMLTINPAKRITAHEALKHPWVCQRSTVASMMHRQEAVECLKKFNARRKLKGAILAAMLATRNFSVGRQTTAPATMSTAASGTTMGLVEQAKSLLNKKADGVKPQTNSTKNSSAITSPKGSLPPAALEPQTTVIHNPVDGIKESSDSTNTTIEDEDAKARKQEIIKTTEQLIEAVNNGDFEAYAKICDPGLTSFEPEALGNLVEGMDFHRFYFENLLAKNSKPIHTTILNPHVHVIGEDAACIAYIRLTQYIDGQGRPRTSQSEETRVWHRRDGKWQNVHFHCSGAPVAPLQ
notes: CaMKII β isoform with T to A substitutions at T287, T306 and T307; also called T287.T306.307A; phosphorylation-defective holoenzyme; source: E. coli BL21/Rosetta or BL21/C41, cotransformed with a protein phosphatase plasmid; copies: 14
On to B1, for which the binding result in data set [2] is “binds”.
